Target: mouse PD-L1 (mouse) (UniProt Q9EP73)
Assay: flow cytometry on DOdKO-mPD-L1/mCD80 cells pretreated with 10 µg/ml TKMG48

Sequence of mouse PD-L1 (mouse) (Q9EP73 19-290 limits assumed): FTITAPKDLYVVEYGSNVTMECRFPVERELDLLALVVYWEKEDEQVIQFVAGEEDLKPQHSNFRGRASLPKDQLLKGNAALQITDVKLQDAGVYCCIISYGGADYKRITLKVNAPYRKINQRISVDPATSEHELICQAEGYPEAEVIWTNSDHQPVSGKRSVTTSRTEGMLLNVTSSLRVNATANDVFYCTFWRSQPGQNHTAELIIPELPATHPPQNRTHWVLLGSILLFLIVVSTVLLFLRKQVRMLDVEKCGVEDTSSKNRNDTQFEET
Sequence of soluble mouse PD-1 extracellular region (PD-1-EC) protein (Q02242 other isoform, or with tags, fused parts or gaps): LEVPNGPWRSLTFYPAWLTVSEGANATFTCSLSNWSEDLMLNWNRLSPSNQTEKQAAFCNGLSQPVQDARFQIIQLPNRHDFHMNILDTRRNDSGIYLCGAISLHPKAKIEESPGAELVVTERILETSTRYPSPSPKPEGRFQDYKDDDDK

soluble mouse PD-1 extracellular region (PD-1-EC) protein (from UniProt Q02242 25-167) (receptor)
amount of binding (mean fluorescence intensity) relative to control IgG pretreatment: 10.1 times

Source: patent publication EP4793290A2
